{"source": "paper PMC3747146", "about": "(PLoS ONE, 2013)", "proteins": {"B1": {"name": "MALT1(ΔNT), wildtype protease domain and C-terminal extension (aa 333-824) (domain or fragment, UniProt Q9UDY8 333-824, looked up)", "chain": "QTTDQPLAKDKVALLIGNMNYREHPKLKAPLVDVYELTNLLRQLDFKVVSLLDLTEYEMRNAVDEFLLLLDKGVYGLLYYAGHGYENFGNSFMVPVDAPNPYRSENCLCVQNILKLMQEKETGLNVFLLDMCRKRNDYDDTIPILDALKVTANIVFGYATCQGAEAFEIQHSGLANGIFMKFLKDRLLEDKKITVLLDEVAEDMGKCHLTKGKQALEIRSSLSEKRALTDPIQGTEYSAESLVRNLQWAKAHELPESMCLKFDCGVQIQLGFAAEFSNVMIIYTSIVYKPPEIIMCDAYVTDFPLDLDIDPKDANKGTPEETGSYLVSKDLPKHCLYTRLSSLQKLKEHLVFTVCLSYQYSGLEDTVEDKQEVNVGKPLIAKLDMHRGLGRKTCFQTCLMSNGPYQSSAATSGGAGHYHSLQDPFHGVYHSHPGNPSNVTPADSCHCSRTPDAFISSFAHHASCHFSRSNVPVETTDEIPFSFSDRLRISEK", "notes": "MALT1 (paracaspase), protease domain and C-terminal extension, aa 333-824; also called ΔNT construct; source: E. coli BL21, GST fusion purified on glutathione-Sepharose, released with PreScission enzyme"}, "B2": {"name": "MALT1(ΔNT) E549A, protease domain and C-terminal extension (aa 333-824) (domain or fragment, UniProt Q9UDY8 333-824, looked up)", "chain": "B1 chain with E217A", "notes": "MALT1 (paracaspase), protease domain and C-terminal extension, aa 333-824, with E549A; source: E. coli BL21, GST fusion purified on glutathione-Sepharose, released with PreScission enzyme"}, "B3": {"name": "MALT1(Casp-like), wildtype isolated protease domain (aa 333-566) (domain or fragment, UniProt Q9UDY8 333-566, looked up)", "chain": "QTTDQPLAKDKVALLIGNMNYREHPKLKAPLVDVYELTNLLRQLDFKVVSLLDLTEYEMRNAVDEFLLLLDKGVYGLLYYAGHGYENFGNSFMVPVDAPNPYRSENCLCVQNILKLMQEKETGLNVFLLDMCRKRNDYDDTIPILDALKVTANIVFGYATCQGAEAFEIQHSGLANGIFMKFLKDRLLEDKKITVLLDEVAEDMGKCHLTKGKQALEIRSSLSEKRALTDPIQG", "notes": "MALT1 (paracaspase), isolated protease (caspase-like) domain, aa 333-566; also called Casp-like construct; MALT1 caspase-like domain; source: E. coli BL21, GST fusion purified on glutathione-Sepharose, released with PreScission enzyme"}}, "target": "the molecule itself", "test": "SEC; Superdex 200 on an ÄKTA FPLC at 4°C, PBS with 10% glycerol (pH 7.4), flow 0.35 ml/min; recombinant proteins released from GST with PreScission", "note": "Substitutions are numbered along the chain they refer to. In names and notes the source's numbering stands."}
{"protein": "B1", "values": [{"measurement": "binding result", "value": "binds"}]}
{"protein": "B2", "values": [{"measurement": "binding result", "value": "binds"}]}
{"protein": "B3", "values": [{"measurement": "stoichiometry N", "value": 2}]}
